This note sets out measurements from PMC4682968, “Studies on the Glutathione-Dependent Formaldehyde-Activating Enzyme from Paracoccus denitrificans” (PLoS ONE, 2015).

The data set deals with the molecule itself. The experiment in a line: SEC; analytical size-exclusion chromatography of wild type non-tagged GFA, calibrated with standard protein samples; apparent Mw = 42 kDa. Background: In gel filtration, larger molecules generally elute earlier.

B1: glutathione-dependent formaldehyde-activating enzyme (GFA) from Paracoccus denitrificans, wild type, non-tagged (enzyme)
chain: GHMVDTSGVKIHPAVDNGIKPAQPGFAGGTLHCKCSTNPVRVAVRAQTAHNHVCGCTKCWKPEGAIFSQVAVVGRDALEVLEGAEKLEIVNAEAPIQRHRCRDCGVHMYGRIENRDHPFYGLDFVHTELSDEDGWSAPEFAAFVSSIIESGVDPSRMEAIRARLRELGLEPYDALSPPLMDAIATHIAKRSGALAA
notes: an additional glycine residue and a histidine residue left on the N-terminus after TEV protease removal of the His-Tag; Expressed from a modified pET16b plasmid with a TEV site between the His-Tag and the insert; also called GFA WT; wild type non-tagged GFA; not shown: His-Tag, N-terminal, cleaved
By stoichiometry N is commonly meant a count of units in the complex or per binding partner. As for B1, the “stoichiometry N” value was determined as 2.
